In CN113512118A:

Biological target: sCD146蛋白 (CD146胞外区蛋白, Sino Biological 10115-H08H-20) (human) (UniProt P43121)
Test: BLI (Octet Red96), against parental AA98

Chain of UniProt P43121 (P43121 24-559): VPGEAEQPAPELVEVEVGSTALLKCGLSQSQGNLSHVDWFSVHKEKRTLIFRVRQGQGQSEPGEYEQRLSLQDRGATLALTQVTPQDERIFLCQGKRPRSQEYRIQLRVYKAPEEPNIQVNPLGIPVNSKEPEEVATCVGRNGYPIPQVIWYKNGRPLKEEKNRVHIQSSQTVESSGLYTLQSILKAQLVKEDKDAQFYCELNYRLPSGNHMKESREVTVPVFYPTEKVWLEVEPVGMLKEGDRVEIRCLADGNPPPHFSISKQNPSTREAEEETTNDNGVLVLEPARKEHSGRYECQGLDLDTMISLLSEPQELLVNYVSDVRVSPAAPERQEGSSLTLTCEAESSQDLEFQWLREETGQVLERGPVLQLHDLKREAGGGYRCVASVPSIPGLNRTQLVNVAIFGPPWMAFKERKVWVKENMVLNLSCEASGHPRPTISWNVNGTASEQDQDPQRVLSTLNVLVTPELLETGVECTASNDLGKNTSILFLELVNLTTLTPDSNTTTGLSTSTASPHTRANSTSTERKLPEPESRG

- fold increase of affinity against AA98: 10 fold
Substance: H13-112抗体 (AA98 variant, heavy chain I28K and light chain L51Y) (antibody)
